Results: article PMC4180971 (Genes & Development, 2014)

T1: Est3-(Flag)3 (S. cerevisiae, UniProt Q03096 1-181)
T1 sequence (looked up): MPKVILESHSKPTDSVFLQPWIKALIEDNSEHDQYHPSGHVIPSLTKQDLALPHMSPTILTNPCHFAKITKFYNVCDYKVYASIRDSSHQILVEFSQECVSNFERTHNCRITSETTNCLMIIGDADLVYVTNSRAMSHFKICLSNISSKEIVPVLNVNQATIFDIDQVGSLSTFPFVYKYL

B1: (myc)12-Est2 (natural protein, S. cerevisiae, UniProt Q06163 1-884, looked up)
chain: MKILFEFIQDKLDIDLQTNSTYKENLKCGHFNGLDEILTTCFALPNSRKIALPCLPGDLSHKAVIDHCIIYLLTGELYNNVLTFGYKIARNEDVNNSLFCHSANVNVTLLKGAAWKMFHSLVGTYAFVDLLINYTVIQFNGQFFTQIVGNRCNEPHLPPKWAQRSSSSSATAAQIKQLTEPVTNKQFLHKLNINSSSFFPYSKILPSSSSIKKLTDLREAIFPTNLVKIPQRLKVRINLTLQKLLKRHKRLNYVSILNSICPPLEGTVLDLSHLSRQSPKERVLKFIIVILQKLLPQEMFGSKKNKGKIIKNLNLLLSLPLNGYLPFDSLLKKLRLKDFRWLFISDIWFTKHNFENLNQLAICFISWLFRQLIPKIIQTFFYCTEISSTVTIVYFRHDTWNKLITPFIVEYFKTYLVENNVCRNHNSYTLSNFNHSKMRIIPKKSNNEFRIIAIPCRGADEEEFTIYKENHKNAIQPTQKILEYLRNKRPTSFTKIYSPTQIADRIKEFKQRLLKKFNNVLPELYFMKFDVKSCYDSIPRMECMRILKDALKNENGFFVRSQYFFNTNTGVLKLFNVVNASRVPKPYELYIDNVRTVHLSNQDVINVVEMEIFKTALWVEDKCYIREDGLFQGSSLSAPIVDLVYDDLLEFYSEFKASPSQDTLILKLADDFLIISTDQQQVINIKKLAMGGFQKYNAKANRDKILAVSSQSDDDTVIQFCAMHIFVKELEVWKHSSTMNNFHIRSKSSKGIFRSLIALFNTRISYKTIDTNLNSTNTVLMQIDHVVKNISECYKSAFKDLSINVTQNMQFHSFLQRIIEMTVSGCPITKCDPLIEYEVRFTILNGFLESLSSNTSKFKDNIILLRKEIQHLQAYIYIYIHIVN
B2: Est1-(myc)12 (natural protein, S. cerevisiae, UniProt P17214 1-699, looked up)
chain: MDNEEVNEECMRLFFKNARAHLDKHLTSRLTCDENAYITFRCFLDGIHRKSTRFLEELLLKQENMYHNNNYERINDSVIPLVLKLLWLQIHEPTLQWFEHWFHDIMRLSNRRKFRVFRIFQKKMIQFFKITHRYYYDIIEHLCAKYDMNSVISNALFAKLNLMQYTDGLSTHEKIILNTSNPLTFSIVISLQRCVINLGSTHFYKTLLNKPSNKPKSVEGFEKSIRYLNIASLYLPAVGDTYFQRAKIYLITGKFSLYFFELVRGALVRIPSKCALNNLKDFILTPDFPERRRLMKKLAILVSKDLKGEKSFFEGQIVLQFLSIVEHTLVPQSWNASRASNCWLLKEHLQMAALKYHSGNINVILENLAATMGSFDLMFTTRKSKEQKNKLKYADLSERQVFFLDLSFDFIANIIDVVIKPSWQKNMEDFRYLAIIRLLMCWIKSYRSILQYTHRHRKFCTSFALLLNDLINSPLNCSGNIYSHRPKRSYLFREDIIFREFSCINFALTDFNDDYVYDSPDMINNIIGCPTLTKVLSPKEECVLRIRSIIFSGMKFLEKNDTGVIWNASKYKFDLISPNIKIKRQIALSEISSKINVKTQQERVVSSRKVEAKRDEQQRKRAGKIAVTELEKQFANVRRTKKLSPLPEKDGVSSELVKHAASRGRKTITGPLSSDFLSYPDEAIDADEDITVQVPDTPT

Key:
Est3-(Flag)3 [1] = molecular target: T1, Est3-(Flag)3; assay: co-IP
Est3-(Flag)3 [2] = molecular target: T1, Est3-(Flag)3; assay: co-IP; remark: listed apart in the source

Row | Binder | fold higher co-precipitation in G2/M than in G1 (Est3-(Flag)3 [1]) [fold] | fold increase in G2/M against G1 (quaternary complex) (Est3-(Flag)3 [1]) [fold] | fold reduction in the tlc1-59 strain against the TLC1 strain (Est3-(Flag)3 [2]) [fold] | Est1:Est2 ratio in the anti-Est3 immunoprecipitate (Est3-(Flag)3 [1]) [Est1 per Est2]
1 | B1 | ~20 | ~20 |  | 
2 | B2 |  |  | ~20 | ~4
